US20250122277A1 (Novartis, published 2025)

Experiments:
[1] = target: T1, rec marmoset IL-17 (marmoset, UniProt A0ACM8QD00 24-153); assay: SPR (BIAcore 2000), 40 nM IL-17, run 1
T1 sequence: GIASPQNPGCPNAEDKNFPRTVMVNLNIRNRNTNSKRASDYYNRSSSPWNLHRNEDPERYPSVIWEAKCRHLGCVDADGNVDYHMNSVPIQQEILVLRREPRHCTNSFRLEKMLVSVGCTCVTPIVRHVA
Source text: (§1) Determination of kinetic binding parameters and levels of crossreactivity are done by surface plasmon resonance measurements using the optical biosensor BIAcore® 2000 (BIAcore AB, Upsalla, Sweden, see Lit. HS 1,2 for details). This technology allows the label-free determination the microscopic rate constants for binding (kₒₙ) and dissociation (koff) of a ligand to a receptor. It is therefore especially suited for characterizing the antibody-antigen interactions. […] Covalent binding of Fcγ capture antibody is done with the ‘Amine coupling kit’ provided by BIAcore (BIAcore, Cat. No. BR-1000-50). […] As a guideline, 1000 RUs correspond to a mass transfer of 1 ng/mm². […] The results are compared to the protocol described in Table 9 (see below).
(§2) Two independent runs testing 6 IL-17 concentrations in each run are performed. Concentrations for human IL-17 are 2, 4, 8, 12, 16, 20 nM and 10, 20, 30, 40, 50, 60 nM for all other species. Complete data analysis yields n=12 individual measurements for each IL-17 species. The KD as well as SEM is reported.

[2] = target: T2, rec rhesus monkey IL-17 (rhesus monkey, UniProt F6T3G5 24-155); assay: SPR (BIAcore 2000), 40 nM IL-17, run 1
T2 sequence: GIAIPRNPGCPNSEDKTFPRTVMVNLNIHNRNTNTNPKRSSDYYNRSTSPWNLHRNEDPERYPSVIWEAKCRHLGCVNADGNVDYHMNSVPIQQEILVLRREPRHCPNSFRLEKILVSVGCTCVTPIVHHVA
Source text: as §1, §2

[3] = target: T3, rec cynomolgous monkey IL-17 (cynomolgous monkey); assay: SPR (BIAcore 2000), 5 nM IL-17, run 1
Source text: as §1
(§3) Two independent runs testing 6 IL-17 concentrations in each run are performed. […] Complete data analysis yields n=12 individual measurements for each IL-17 species. The KD as well as SEM is reported.

[4] = target: T3, rec cynomolgous monkey IL-17; assay: SPR (BIAcore 2000), 15 nM IL-17, run 2
Source text: as §1, §3

[5] = target: T1, rec marmoset IL-17; assay: SPR (BIAcore 2000), 50 nM IL-17, run 1
Source text: as §1, §2

[6] = target: T2, rec rhesus monkey IL-17; assay: SPR (BIAcore 2000), 50 nM IL-17, run 1
Source text: as §1, §2

[7] = target: T3, rec cynomolgous monkey IL-17; assay: SPR (BIAcore 2000), 5 nM IL-17, run 2
Source text: as §1, §3

[8] = target: T3, rec cynomolgous monkey IL-17; assay: SPR (BIAcore 2000), mean (printed n = 10)
Source text: as §1, §2

[9] = target: T1, rec marmoset IL-17; assay: SPR (BIAcore 2000), 10 nM IL-17, run 1
Source text: as §1, §2

[10] = target: T2, rec rhesus monkey IL-17; assay: SPR (BIAcore 2000), 10 nM IL-17, run 1
Source text: as §1, §2

[11] = target: T3, rec cynomolgous monkey IL-17; assay: SPR (BIAcore 2000), 10 nM IL-17, run 1
Source text: as §1, §2

[12] = target: T2, rec rhesus monkey IL-17; assay: SPR (BIAcore 2000), 60 nM IL-17, run 1
Source text: as §1, §2

[13] = target: T1, rec marmoset IL-17; assay: SPR (BIAcore 2000), mean n = 10
Source text: as §1, §2

[14] = target: T1, rec marmoset IL-17; assay: SPR (BIAcore 2000), 50 nM IL-17, run 2
Source text: as §1, §2

[15] = target: T3, rec cynomolgous monkey IL-17; assay: SPR (BIAcore 2000), 25 nM IL-17, run 1
Source text: as §1, §3

[16] = target: T3, rec cynomolgous monkey IL-17; assay: SPR (BIAcore 2000), 25 nM IL-17, run 2
Source text: as §1, §3

[17] = target: T1, rec marmoset IL-17; assay: SPR (BIAcore 2000), 20 nM IL-17, run 1
Source text: as §1, §2

[18] = target: T2, rec rhesus monkey IL-17; assay: SPR (BIAcore 2000), 20 nM IL-17, run 1
Source text: as §1, §2

[19] = target: T3, rec cynomolgous monkey IL-17; assay: SPR (BIAcore 2000), 20 nM IL-17, run 1
Source text: as §1, §2

[20] = target: T2, rec rhesus monkey IL-17; assay: SPR (BIAcore 2000), mean of run 1 + 2
Source text: as §1, §2

[21] = target: T3, rec cynomolgous monkey IL-17; assay: SPR (BIAcore 2000), mean of run 1 + 2
Source text: as §1, §2

[22] = target: T1, rec marmoset IL-17; assay: SPR (BIAcore 2000), 30 nM IL-17, run 2
Source text: as §1, §2

[23] = target: T2, rec rhesus monkey IL-17; assay: SPR (BIAcore 2000), 30 nM IL-17, run 2
Source text: as §1, §2

[24] = target: T3, rec cynomolgous monkey IL-17; assay: SPR (BIAcore 2000), 30 nM IL-17, run 2
Source text: as §1, §2

[25] = target: T1, rec marmoset IL-17; assay: SPR (BIAcore 2000), 40 nM IL-17, run 2
Source text: as §1, §2

[26] = target: T2, rec rhesus monkey IL-17; assay: SPR (BIAcore 2000), 40 nM IL-17, run 2
Source text: as §1, §2

[27] = target: T1, rec marmoset IL-17; assay: SPR (BIAcore 2000), 20 nM IL-17, run 2
Source text: as §1, §2

[28] = target: T2, rec rhesus monkey IL-17; assay: SPR (BIAcore 2000), 20 nM IL-17, run 2
Source text: as §1, §2

[29] = target: T3, rec cynomolgous monkey IL-17; assay: SPR (BIAcore 2000), 20 nM IL-17, run 2
Source text: as §1, §2

[30] = target: T2, rec rhesus monkey IL-17; assay: SPR (BIAcore 2000), 60 nM IL-17, run 2
Source text: as §1, §2

[31] = target: T1, rec marmoset IL-17; assay: SPR (BIAcore 2000), 10 nM IL-17, run 2
Source text: as §1, §2

[32] = target: T2, rec rhesus monkey IL-17; assay: SPR (BIAcore 2000), 10 nM IL-17, run 2
Source text: as §1, §2

[33] = target: T3, rec cynomolgous monkey IL-17; assay: SPR (BIAcore 2000), 10 nM IL-17, run 2
Source text: as §1, §2

[34] = target: T2, rec rhesus monkey IL-17; assay: SPR (BIAcore 2000), mean n = 12
Source text: as §1, §2

[35] = target: T1, rec marmoset IL-17; assay: SPR (BIAcore 2000), 30 nM IL-17, run 1
Source text: as §1, §2

[36] = target: T2, rec rhesus monkey IL-17; assay: SPR (BIAcore 2000), 30 nM IL-17, run 1
Source text: as §1, §2

[37] = target: T3, rec cynomolgous monkey IL-17; assay: SPR (BIAcore 2000), 30 nM IL-17, run 1
Source text: as §1, §2

B1: recombinant human AIN457 (batch KB03303A) (antibody, V domains shown)
VH: EVQLVESGGGLVQPGGSLRLSCAASGFTFSNYWMNWVRQAPGKGLEWVAAINQDGSEKYYVGSVKGRFTISRDNAKNSLYLQMNSLRVEDTAVYYCVRDYYDILTDYYIHYWYFDLWGRGTLVTVSS
VL: not shown
notes: same variable domains as m1; also called AIN457 (KB03303A); NVP-AIN457 (KB03303A)
Kd [1]: 1.17 nM
Kd [2]: 12.4 nM
Kd [3]: 1.1 nM
Kd [4]: 7.41 nM
Kd [5]: 1.21 nM
Kd [6]: 11.2 nM
Kd [7]: 7.08 nM
Kd [8]: 6 nM
Kd [9]: 0.895 nM
Kd [10]: 2.28 nM
Kd [11]: 2.24 nM
Kd [12]: 13.1 nM
Kd [13]: 1.21 nM
Kd [14]: 1.67 nM
Kd [15]: 6.26 nM
Kd [16]: 7.34 nM
Kd [17]: 0.782 nM
Kd [18]: 7.34 nM
Kd [19]: 4.75 nM
Kd [20]: 9 nM
Kd [21]: 6 nM
Kd [22]: 1.57 nM
Kd [23]: 8.16 nM
Kd [24]: 8.32 nM
Kd [25]: 1.36 nM
Kd [26]: 9.74 nM
Kd [27]: 1.17 nM
Kd [28]: 5.93 nM
Kd [29]: 7.17 nM
Kd [30]: 12.3 nM
Kd [31]: 1.13 nM
Kd [32]: 7.04 nM
Kd [33]: 6.9 nM
Kd [34]: 8.96 nM
Kd [35]: 1.17 nM
Kd [36]: 6.04 nM
Kd [37]: 7.89 nM
